For experiment [1], the target named is T1, human IL-6 (human, UniProt P05231 30-212).
T1 construct: the protein used was bought recombinant human IL-6 (R&D Systems), in part biotinylated; also called rhIL-6; hIL-6
Description: panning and screening on IL-6.

The target of experiment [2] is T1, human IL-6. Description: ELISA on IL-6 (also TF1 cell assay). A general note: An ELISA detects its analyte on a solid surface through an enzyme-linked reagent.

B1: SEQ ID NO 629 (designed binder)
chain: CLSSQFQCSNGNCIPAAWLCDSDNDCGDDSDETSCPAPTCPSSQFQCSSGWCIPEDWRCDGVPDCGDGSDEASDHCGDSHILPFSTPGPST
For the molecule B1, the binding result with human IL-6 [1] was “binds”.

B2: SEQ ID NO 925 (designed binder)
chain: CLPDQFRCGNGQCMPLDWVCDGVNDCPDDSDEEGCPPRTCEPGQFQCGSGYCISQRWVCDGENDCEDGSDEATCAGSVPQCPSDEFRCRTGRCIPQAWRCDGVNDCVDNSDEECCKEHT
Turning to B2, in the experiment with human IL-6 [2], the binding result is recorded as “binds”.

The values above are taken from patent publication US20090305962A1 (Amgen, published 2009).
